Laboratory results from patent US20230330251A1, “METHODS FOR TREATING CANCERS WITH ANTIBODY DRUG CONJUGATES (ADC) THAT BIND TO 191P4D12 PROTEINS” (AGENSYS, INC., priority 2020, published 2023).

System: subjects with previously treated locally advanced or metastatic urothelial cancer
Test: EV-301: safety, adverse events (safety analysis set, NCI-CTCAE v4.03, MedDRA)
[1] = Any Grade, N = 296 EV, 291 chemotherapy
[2] = Baseline PN, n = 55 EV, 58 chemotherapy
[3] = Grade 1, N = 296 EV, 291 chemotherapy
[4] = Grade 2, N = 296 EV, 291 chemotherapy
[5] = Grade 3, N = 296 EV, 291 chemotherapy
[6] = Grade 4, N = 296 EV, 291 chemotherapy
[7] = Grade Any, N = 296 EV, 291 chemotherapy

Text: The Safety Analysis Set (SAF) will be used for the safety analysis. All subjects who are randomized and received study drug will be included in the SAF. The frequency of AEs and the serious AEs will be summarized by MedDRA system organ class and preferred term. In addition, summary statistics will be provided for the following safety parameters: • Laboratory values • Vital sign measurements • ECOG PS
An AE is any untoward medical occurrence in a subject, temporally associated with the use of a medicinal product, whether or not considered related to the medicinal product. An AE can therefore be any unfavorable and unintended sign (including an abnormal laboratory finding), symptom, or disease (new or exacerbated) temporally associated with the use of a medicinal product.
AEs, including abnormal clinical laboratory values, will be graded using the NCI-CTCAE guidelines (Version 4.03).
The safety analysis set (SAF), which consists of all subjects who received any amount of study drug, will be used for safety analyses.
SAF was used to perform all safety analysis. All treated subjects were analyzed according to the treatment they received.
The number and percentage of AEs by severity were also summarized. All AEs were listed.
A study drug-related TEAE is defined as any TEAE with a causal relationship of YES by the investigator. AEs of interest as classified by customized MedDRA queries and/or standard MedDRA queries were also summarized.

## enfortumab vedotin
% of patients
  Treatment-related adverse events of grade 3 or higher: 51.4%
  Treatment-related adverse events resulting in dose reduction: 32.4%
  Treatment-related adverse events resulting in interruption of treatment: 51.0%
  Treatment-related adverse events resulting in withdrawal of treatment: 13.5%
  grade 3 or higher treatment-related decreased neutrophil count: 6.1%
  grade 3 or higher treatment-related fatigue: 6.4%
  grade 3 or higher treatment-related maculopapular rash: 7.4%
All, N = 296 EV, 291 SC
  Grade ≥3 TRAE: Decreased neutrophil count, %: 6.1%
  Grade ≥3 TRAE: Decreased white blood cell count, %: 1.4%
  Grade ≥3 TRAE: Fatigue, %: 6.4%
  Grade ≥3 TRAE: Febrile neutropenia, %: 0.7%
  Grade ≥3 TRAE: Maculopapular rash, %: 7.4%
  Grade ≥3 TRAE: Neutropenia, %: 4.7%
[1]
  TRAE: Alopecia, Number of patients: 134
  TRAE: Alopecia, percent: (45.3) percent
  TRAE: Anemia, Number of patients: 34
  TRAE: Anemia, percent: (11.5) percent
  TRAE: Any adverse event, Number of patients: 278
  TRAE: Any adverse event, percent: (93.9) percent
  TRAE: Decreased appetite, Number of patients: 91
  TRAE: Decreased appetite, percent: (30.7) percent
  TRAE: Decreased neutrophil count, Number of patients: 30
  TRAE: Decreased neutrophil count, percent: (10.1) percent
  TRAE: Decreased white-cell count, Number of patients: 16
  TRAE: Decreased white-cell count, percent: (5.4) percent
  TRAE: Diarrhea, Number of patients: 72
  TRAE: Diarrhea, percent: (24.3) percent
  TRAE: Dysgeusia, Number of patients: 72
  TRAE: Dysgeusia, percent: (24.3) percent
  TRAE: Fatigue, Number of patients: 92
  TRAE: Fatigue, percent: (31.1) percent
  TRAE: Febrile neutropenia, Number of patients: 2
  TRAE: Febrile neutropenia, percent: (0.7) percent
  TRAE: Maculopapular rash, Number of patients: 48
  TRAE: Maculopapular rash, percent: (16.2) percent
  TRAE: Nausea, Number of patients: 67
  TRAE: Nausea, percent: (22.6) percent
  TRAE: Neutropenia, Number of patients: 20
  TRAE: Neutropenia, percent: (6.8) percent
  TRAE: Peripheral sensory neuropathy, Number of patients: 100
  TRAE: Peripheral sensory neuropathy, percent: (33.8) percent
  TRAE: Pruritus, percent: (32.1) percent
Baseline BMI <30 kg/m^2, n = 255 EV, 244 chemotherapy
  Treatment-emergent Hyperglycemia, %: 9.0%
Baseline BMI ≥30 kg/m^2, n = 41 EV, 46 chemotherapy
  Treatment-emergent Hyperglycemia, %: 29.3%
[2]
  Treatment-emergent Hyperglycemia, %: 38.2%
  Treatment-emergent Peripheral motor neuropathy, %: 20.0%
  Treatment-emergent Peripheral neuropathy, %: 49.1%
  Treatment-emergent Peripheral sensory neuropathy, %: 40.0%
[3]
  TRAE of special interest: Blurred vision, %: 3.4%
  TRAE of special interest: Corneal disorders, %: 0.7%
  TRAE of special interest: Dry eye, %: 11.5%
  TRAE of special interest: Extravasation site reactions, %: 0.3%
  TRAE of special interest: Hyperglycemia, %: 1.0%
  TRAE of special interest: Infusion-related reactions, %: 3.7%
  TRAE of special interest: Infusion-related reactions, Local events, %: 0.3%
  TRAE of special interest: Infusion-related reactions, Systemic events, %: 3.4%
  TRAE of special interest: Ocular disorders, %: 13.5%
  TRAE of special interest: Peripheral neuropathy, %: 14.9%
  TRAE of special interest: Peripheral neuropathy, Motor events, %: 1.7%
  TRAE of special interest: Peripheral neuropathy, Sensory events, %: 14.5%
  TRAE of special interest: Rash, %: 13.9%
  TRAE of special interest: Severe cutaneous adverse reaction, %: 6.8%
  TRAE of special interest: Skin reactions, %: 13.9%
[4]
  TRAE of special interest: Blurred vision, %: 0.7%
  TRAE of special interest: Dry eye, %: 3.7%
  TRAE of special interest: Extravasation site reactions, %: 0.7%
  TRAE of special interest: Hyperglycemia, %: 1.4%
  TRAE of special interest: Infusion site reactions, %: 0.7%
  TRAE of special interest: Infusion-related reactions, %: 3.7%
  TRAE of special interest: Infusion-related reactions, Local events, %: 0.7%
  TRAE of special interest: Infusion-related reactions, Systemic events, %: 3.0%
  TRAE of special interest: Ocular disorders, %: 4.4%
  TRAE of special interest: Peripheral neuropathy, %: 26.4%
  TRAE of special interest: Peripheral neuropathy, Motor events, %: 4.1%
  TRAE of special interest: Peripheral neuropathy, Sensory events, %: 25.7%
  TRAE of special interest: Rash, %: 15.5%
  TRAE of special interest: Severe cutaneous adverse reaction, %: 8.4%
  TRAE of special interest: Skin reactions, %: 18.6%
[5]
  TRAE of special interest: Dry eye, %: 0.7%
  TRAE of special interest: Hyperglycemia, %: 3.7%
  TRAE of special interest: Infusion-related reactions, %: 1.4%
  TRAE of special interest: Infusion-related reactions, Systemic events, %: 1.4%
  TRAE of special interest: Ocular disorders, %: 0.7%
  TRAE of special interest: Peripheral neuropathy, %: 5.1%
  TRAE of special interest: Peripheral neuropathy, Motor events, %: 1.7%
  TRAE of special interest: Peripheral neuropathy, Sensory events, %: 3.7%
  TRAE of special interest: Rash, %: 14.2%
  TRAE of special interest: Severe cutaneous adverse reaction, %: 4.7%
  TRAE of special interest: Skin reactions, %: 14.2%
[6]
  TRAE of special interest: Rash, %: 0.3%
  TRAE of special interest: Severe cutaneous adverse reaction, %: 0.3%
  TRAE of special interest: Skin reactions, %: 0.3%
Grade 5, N = 296 EV, 291 chemotherapy
  TRAE of special interest: Hyperglycemia, %: 0.3%
[7]
  TRAE of special interest: Blurred vision, %: 4.1%
  TRAE of special interest: Corneal disorders, %: 0.7%
  TRAE of special interest: Dry eye, %: 15.9%
  TRAE of special interest: Extravasation site reactions, %: 1.0%
  TRAE of special interest: Hyperglycemia, %: 6.4%
  TRAE of special interest: Infusion site reactions, %: 0.7%
